Paper PMC7801659, “Shared and divergent phase separation and aggregation properties of brain-expressed ubiquilins” (Scientific Reports, 2021)

Molecular target: the molecule itself
Assay: ThioflavinT aggregation assay + transmission electron microscopy; 10 µM protein alone, 10 µM ThT, 0.1 M NaCl, 1 mM sodium azide, 20 mM Na phosphate pH 7.5, 37 °C, shaking at 200 rpm with Teflon beads; samples taken for negative-stain TEM at the end of the ThT assay; self-association into aggregates or fibrils

B1: UBQLN2^430–624 (domain or fragment, human)
chain: WLPAFLQQMQNPDTLSAMSNPRAMQALMQIQQGLQTLATEAPGLIPSFTPGVGVGVLGTAIGPVGPVTPIGPIGPIVPFTPIGPIGPIGPTGPAAPPGSTGSGGPTGPTVSSAAPSETTSPTSESGPNQQFIQQMVQALAGANAPQLPNPEVRFQQQLEQLNAMGFLNREANLQALIATGGDINAAIERLLGSQPS
notes: one tryptophan added at the N-terminus with the 6xHis tag (His6-W-); ubiquilin-2 (UBQLN2, PLIC-2), residues 430-624, from the fourth STI1 motif to the end of the protein, includes the PXX domain and the UBA domain; Plasmid pET3a-His6-W-UBQLN2^430–624 bought from Genscript; also called His6-W-UBQLN2^430–624; C-terminal UBQLN2 construct; source: E. coli Rosetta (DE3), purified (Ni-NTA, flow-through …)
  binding result: binds

B2: UBA^581–624 (domain or fragment, human)
chain: WRFQQQLEQLNAMGFLNREANLQALIATGGDINAAIERLLGSQPS
notes: one tryptophan added at the N-terminus with the 6xHis tag (His6-W-); ubiquilin-2 (UBQLN2), UBA domain, residues 581-624; The methods on expression and purification name only the three longer constructs; also called His6-W-UBQLN2^581–624(UBA); isolated UBA domain from UBQLN2; source: recombinant, plasmid for bacterial expression (pET3a)
  binding result: binds

B3: UBQLN1^438–589 (domain or fragment, human)
chain: WLPTFLQQMQNPDTLSAMSNPRAMQALLQIQQGLQTLATEAPGLIPGFTPGLGALGSTGGSSGTNGSNATPSENTSPTAGTTEPGHQQFIQQMLQALAGVNPQLQNPEVRFQQQLEQLSAMGFLNREANLQALIATGGDINAAIERLLGSQPS
notes: one tryptophan added at the N-terminus with the 6xHis tag (His6-W-); also called C-terminal UBQLN1 construct; source: E. coli Rosetta (DE3), purified (Ni-NTA, dialysis); not shown: His6, N-terminal, kept
  binding result: binds

B4: UBQLN4^444–601 (domain or fragment, human)
chain: WLPVFLQQMQNPESLSILTNPRAMQALLQIQQGLQTLQTEAPGLVPSLGSFGISRTPAPSAGSNAGSTPEAPTSSPATPATSSPTGASSAQQQLMQQMIQLLAGSGNSQVQTPEVRFQQQLEQLNSMGFINREANLQALIATGGDINAAIERLLGSQLS
notes: one tryptophan added at the N-terminus with the 6xHis tag (His6-W-); also called C-terminal UBQLN4 construct; source: E. coli Rosetta (DE3), purified (Ni-NTA, dialysis); not shown: His6, N-terminal, kept
  binding result: binds
